Measurements from paper PMC10889554.

What was measured:
[1] = biological target: human cathepsin K (human) (UniProt P43235)
[2] = biological target: human cathepsin L (human); test: enzyme inhibition kinetics (fluorogenic peptide substrate activity assay); inhibitor preincubated with protease 15 min, 37 °C; IC50 from residual velocities, Ki by the Cheng-Prusoff equation; 50 mM sodium acetate pH 5.5, 0.1% polyethylene glycol 1500, 2.5 mM dithiothreitol (cathepsins L, K, V, B, F, C and papain; 50 mM NaCl for cathepsin C)
[3] = biological target: human cathepsin K (human) (UniProt P43235); test: as above
[4] = biological target: human cathepsin V (human) (UniProt O60911); test: as above
[5] = biological target: human cathepsin L (human)
[6] = biological target: human cathepsin K (human) (UniProt P43235); remark: listed apart in the source
[7] = biological target: human cathepsin V (human) (UniProt O60911)

Sequence of human cathepsin V (human) (O60911 114-334): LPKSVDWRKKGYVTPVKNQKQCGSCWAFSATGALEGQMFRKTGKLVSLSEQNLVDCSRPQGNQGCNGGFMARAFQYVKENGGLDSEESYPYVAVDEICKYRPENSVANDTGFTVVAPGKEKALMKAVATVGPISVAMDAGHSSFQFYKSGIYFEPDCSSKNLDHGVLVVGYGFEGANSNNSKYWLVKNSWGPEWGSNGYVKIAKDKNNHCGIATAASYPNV
Sequence of human cathepsin K (human) (P43235 115-329): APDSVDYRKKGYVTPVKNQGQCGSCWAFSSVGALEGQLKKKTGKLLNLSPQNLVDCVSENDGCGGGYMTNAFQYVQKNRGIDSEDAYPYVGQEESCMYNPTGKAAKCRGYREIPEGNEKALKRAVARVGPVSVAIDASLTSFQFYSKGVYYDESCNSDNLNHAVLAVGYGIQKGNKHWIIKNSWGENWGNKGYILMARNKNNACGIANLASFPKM

Substance | reduction of inhibition of cathepsin K activity by IrThy with 0.3 M NaCl, without heparin [1] [%] | Ki [2] [nM] | Ki [3] [nM] | Ki [4] [nM] | change of % inhibition of cathepsin L activity by IrThy with GAGs at 10 µg/mL [5] [%] | % inhibition of cathepsin K activity by IrThy with chondroitin-4-sulfate at 10 µg/mL [6] [%] | % inhibition of cathepsin K activity by IrThy with chondroitin-6-sulfate at 10 µg/mL [6] [%] | % inhibition of cathepsin K activity by IrThy, no GAG, pH 5.5 [6] [%] | % inhibition of cathepsin V activity by IrThy, no GAG, pH 5.5 [7] [%]
Ir-thyropin (IrThy), recombinant full-length mature protein (natural protein) | 20 | 201 | 56.9 | 34.7 | < 15 | 16 | 23 | 50 | 25
IrThy-Cd, recombinant C-terminal Tg1 domain of IrThy (domain or fragment) | – | 795 | 53.1 | 40.7 | – | – | – | – | –
